Results taken from patent US9512459B2 (priority 2011, dated 2016).

Substrate: OC[C@H]1OC(O)[C@H](O)[C@@H](O)[C@@H]1O
Assay: cells, lysate or membranes named
Details: other: 60 ml culture, crude enzyme, glucose 1-40 mM, pH 6.5, DCIP/PMS, 20.0 °C

B1: Aspergillus niger glucose dehydrogenase (FAD-GDH) Ang-n1, wild type, SEQ ID NO: 2 (20 N-terminal residues deleted, Ala21 substituted by Met) (Aspergillus niger … (protein)
chain: MDSPAHYDFVIVGGGTSGLVVANRLSELSDVTVAVIEAGESALNNFNVSNVMGYSTAFGTEVDWAYQTENQTYAGGLQQTIRAGKALGGTSTINGMSYTRAEDVQIDNWEVLGNDGWNWKNLFQYYKKSEGFQVPTKDQIAHGASYNASYHGLNGPLKVGWPNSMTNSSVFPVLEQTFEKLGVQYNPDSEGGKMVGFTVHPDTLDREMNVREDAARAYYWPYEARSNLKIISNTRANKVIWANTTQGEAVAVGIEVTNAYGTETIYADKEVILSAGALRSPAILELSGIGNPDVLNKHNIPVKVNITTVGENLQDQTNNALSWEGVDTLTGLATFSVLPSVNQLYGDNVTALASYVKSQLASYAKTVASASNGAVKEANLVEAFERQYDLIFNSQVPYTEVVFAPSGNSFAVEYWPLLPFSRGSVHIQSANASDYPAINPNYFMFDQDAEAQVTVAQYIRKALGTAPLNSLVGEEVSPGLDVLPASASSATWTKWVKENYRTNYHPVGTTSMLPREKGGVVSPELKVYGTKNVRVVDASVLPFQLCGHLTSTLYAVAERASDLIKESY
Km: 3.6 mM
